Experimental data published in PMC9170038.

target: T1, MS2 coat protein, dlFG mutant (Escherichia phage MS2, UniProt P03612, del68-81insG); experiment: 4 mM Mg2+; no ligand; RNA-MaP array; 100 mM Tris-HCl pH 7.5, 80 mM KCl, 4 mM MgCl2, 0.1 mg/mL BSA, 1 mM DTT, 0.01 mg/mL yeast tRNA, 0.01% Tween-20; protein 1.5 nM to 3 uM; 37 C (Table S3); conditions: chain copies: 2; label: tethered by stalled RNA polymerase

Row | Binder | Kd [nM]
1 | Eterna 6415900 (Inverted Small Loop Same State NG 3) (ssRNA) RNA: UGCUACGUUUCGUAGCAGUGUCAUCGAGAAGGCCCUGACAUGAGGAUCACCCAUGUUGUUACAUGGGAGGAUAUCGAUGAUACA | 12.1
2 | Eterna 6117727 (Exclusion NG 3) (ssRNA) RNA: GGUUGUCAUAGUCAUCCUUUCCGUACAUGAGGAUCACCCAUGUAGGAUAUGCUACUCACAGUGUGGCAGAAGGGCGUGUGUCUU | 17
3 | Eterna 15484 (Exclusion 5) (ssRNA) RNA: CUUUGAUGAGGAUAUCGAGGUUAGUACAUGAGGAUCACCCAUGUUAUCCAGGUGUCGGAUCGAGAAGGUAUUGGAC | 14.9
4 | Eterna 6418068 (Inverted Exclusion NG 1) (ssRNA) RNA: CGUGCUAUGUAGAAGGCAGAUCUGAUUCAGAUCUGAGGAUAUACAUGAGGAUCACCCAUGUUAUGCACCAGCACGAGAGUGCAC | 7.12
5 | Eterna 7745506 (Same State - Arginine B) (ssRNA) RNA: CCGGGCGGCCGAAGGAGCGGGCGGACCCGAGUGAUGUUCGGGUGGCCCGUGAGGGCCGGUGCCCAGGUAGGUCGCGGAUCCGCCC | > 3000
6 | Eterna 5989570 (Sensor, turn-off variant 1) (ssRNA) RNA: GUCAUCACACAUGGGAUCAACAUGAGGAUCACCCAUGUUGUCAAGUUUUUUGCUCGUCUUAUAAUACGUUUGAUGAC | 30.2
7 | Eterna 1774 (Same State - Tryptophan B) (ssRNA) RNA: CGAUCUUGGUCGGCCGCCACUACACCCACACCAAAUAGGAAAGUAGCGAGUGAUGUUUGUGACGUUAGGACCGGGACCACUGGUC | > 3000
8 | Eterna 6061522 (Exclusion 3) (ssRNA) RNA: AAUUCGGCAGGAUAUACAUGAGGAUCACCCAUGUAAAUUUUUCGUUUAACUUGAAUGUGUAGAAGGGCCAUUUA | 22.8
9 | Eterna 11801 (Exclusion 2) (ssRNA) RNA: AGUAACAGAGGAUAUACUGUUUUAUGUGUUUAUUAUUUUGAACAUGAGGAUCACCCAUGUAGAAGGCUGAAUAA | 23.2
10 | Eterna 6030125 (Exclusion 6) (ssRNA) RNA: GUGCGUGGCUAGGAUAUUGUGGAGUUUUGUCAGCGAGAAGGAGCCACAUGAGGAUCACCCAUGUGGUGUUGCUC | 175
11 | Eterna 13502 (Sensor v3, turn-off variant 2) (ssRNA) RNA: AGUAGAUCUACGCUUGCGUGGAUCUGCAAUGUAGGUGUUACAUGAGGAUCACCCAUGUCCUCAUUUGCUCGUCUUAG | 312
12 | Eterna 6430466 (Small Loop Same State NG 3) (ssRNA) RNA: UUCGAGCCAAGGCUCGCGAGUACACAGGAUAUGGAAAGUCACAUGAGGAUCACCCAUGUCCAAAACCAGAAGGGUGAGACUAAG | 458
13 | Eterna 13336 (Sensor for hsa-mir-208a) (ssRNA) RNA: AGUCCAGCCAGAGCUGGACAAAAGCAUGUACAUGAGGAUCACCCAUGUUCAUGUACAAGCUUUUUGCUCGUCUUAAA | 592
14 | Eterna 9534 (Sensor v3, turn-off variant 2) (ssRNA) RNA: GGUACUAUCACCUGAGUGGUAGUGCCAUAAGCUUGUGAUACAUGAGGAUCACCCAUGUCCUCAUUUGCUCGUCUUAU | 600
15 | Eterna 6120937 (Same State NG 1) (ssRNA) RNA: GCCAUCACAUGAGGAUAUGGCACCGUUUCGGUGCCAGAAGGCAUGUCAUAAGACAUGAGGAUCACCCAUGUAGUUAAGAUGGCA | 922
16 | Eterna 7698835 (Same State - Arginine B) (ssRNA) RNA: GCUAUGGUAGGAAGGAGCGCUUAUUUAUUUUUACGAGUGAUGUUCGGUAGUAGAUAGUUAAAGCAGGUAGGUCGCCUACUAUAGC | > 3000
17 | Eterna 7691283 (Same State - Arginine B) (ssRNA) RNA: AUUCUAUUGUGAAGGAGCGCGACUAGUAGUGAUGUUACUAUAUGACUUUAGUCUUAAUUCUCGCAGGUAGGUCGCACAAUAUAUA | > 3000
18 | Eterna 7740606 (Exclusion - Theophylline A) (ssRNA) RNA: AAGUCUCGUUAAUUCGAGGUUACGAUCGAUACCAGUAGCGAGAGGUACCCUUGGCAGCGAAGUGAGUGAUGUUCAUGAAAGAAGA | > 3000
19 | UUUGGGCAGUGAUGUUGCCCCUUU (ssRNA) [Eterna 7 (K4-TR_control)] | > 3000
20 | Eterna 7716240 (Exclusion - Theophylline B) (ssRNA) RNA: GGUUUAUAAGAGGAUACCAGUACAAAUAAAGUACAUUAAUAGUAGAGUGAUGUUCUAAAGUACCCUUGGCAGCUUAGAUUAAGUU | > 3000
21 | Eterna 7686162 (Exclusion - FMN A) (ssRNA) RNA: UACAUAUAAUUAUUUCUACAUUUAUUUAGUCAGGAUAUCGAUUAAACGAGAAGGGACAAUAUCAAGUGAUGUUUGAUAAUUCAAA | > 3000
22 | Eterna 1179 (Exclusion - Theophylline B) (ssRNA) RNA: CACCCAGUCCUCGAUACCAGACUGGCACGUCAAAAGGUCCAGUGAUGUUGAGCCUAACAAGUCCCUUGGCAGCGACCAGUGUAUU | > 3000
23 | Eterna 7739799 (Exclusion - Arginine A) (ssRNA) RNA: CAGACCACAGAGUGAUGUUCUGUGUCCGAAGGAGCGCGCGAGAGCGCAGGUAGGUCGCGGAUACAGUUGACGUACCUUCAAGACA | > 3000
24 | Eterna 7684838 (Same State - Theophylline A) (ssRNA) RNA: AAAUUUAAUAUAUUUAAAUAAAUAUGUGAUACCAGACAUUUAUAAGUCCCUUGGCAGCACAAUGCAGUGAUGUUGCUUAUAAUAA | > 3000
25 | Eterna 1699 (Same State - Theophylline B) (ssRNA) RNA: UCGCAUUAACCGGAUACCAGCUUAGUGGGAUCUUCAAUCCGACAGAAAGUGAUGUUUUCUAGCCCUUGGCAGCCGAGAUUAUCAC | > 3000
26 | Eterna 7742068 (Same State - Tryptophan B) (ssRNA) RNA: AGUACAAUGGCGGCCGCCACUCAACGCAGAUCAAAGAUCUGCGUUCACUCAGUGAUGUUGAGUGAGAGGACCGGGCCUUUGUACA | > 3000
27 | Eterna 1186 (Exclusion - Theophylline B) (ssRNA) RNA: GAUAGUUAGAGAGAUACCAGCGAUACCUAGAUGGAAAGUGAUGUUCGCCAUCAAUUGCACCGCCCUUGGCAGCUCUCUCUUUGCU | > 3000
28 | Eterna 1729 (Same State - Tryptophan A) (ssRNA) RNA: GGAGUCCCGUUAGAUUGUGUAGAUACAAGACGAGGACCGGUACGGCCGCCACUCGCCAUCGUCCAGUGAUGUUGGGCGUCACGGG | > 3000
29 | Eterna 7700218 (Same State - Theophylline A) (ssRNA) RNA: UGGUUAAGCAGUGAUGUUGCAAGUGAUGAUACCAGUUAAGAAGAGAACCCUUGGCAGCAUAAAGUGCGCUCUGAUGAGUGUGCUU | > 3000

target: T1, MS2 coat protein, dlFG mutant; experiment: 4 mM Mg2+; L-tryptophan 2.4 mM; RNA-MaP array; 100 mM Tris-HCl pH 7.5, 80 mM KCl, 4 mM MgCl2, 0.1 mg/mL BSA, 1 mM DTT, 0.01 mg/mL yeast tRNA, 0.01% Tween-20; protein 1.5 nM to 3 uM; 37 C (Table S3); conditions: chain copies: 2; label: tethered by stalled RNA polymerase

Row | Binder | Kd [nM]
30 | Eterna 7614506 (Exclusion - Tryptophan A) (ssRNA) RNA: UAUAUAUAUCACGAACUGUGGUGUAUGUCUCGAGGACCGGUACGGCCGCCACUCGCGCGGCCUCACAUGAGGAUCACCCAUGUUG | 46
31 | Eterna 7727518 (Exclusion - Tryptophan B) (ssRNA) RNA: GUUUUGGGAUCGGCCGCCACUACAUGAGGAUCACCCAUGUGGACAAAUAGGGUUUUUAAGCUCGGUAGGACCGGGAUUCGAACAU | 67.5
